How the values were obtained:
IL-19 = biological target: T1, IL-19 (human, UniProt Q9UHD0 25-177); experiment: SPR (Biacore), IL-19 (500-3.91 nM) over IL-20R2-fc captured by anti-FC Ab, 1:1 fit
T1 construct: also called Interleukin-19; IL-19a
T1 sequence: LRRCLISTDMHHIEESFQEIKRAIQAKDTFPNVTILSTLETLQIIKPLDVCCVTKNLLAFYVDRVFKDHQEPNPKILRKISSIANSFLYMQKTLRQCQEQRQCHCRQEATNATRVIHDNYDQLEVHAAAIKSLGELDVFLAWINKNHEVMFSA
Procedure: (§1) SPR sensorgrams, data fits (black lines), KD values, and residual errors obtained for complexes described at the top of each panel. Panels are labeled as injected soluble proteins, followed by a semicolon (:), then the protein coupled to chip surface, IL-20R1 or IL-20R2. FIGS. 12A and 12B show injection of IL-19 and IL-20 (max conc.=10 μM, 2 fold diluted to 0.625 μM) over IL-20R1. FIGS. 12C and 12D show injection of IL-19 (max conc.=500 nM, 2-fold diluted to 3.91 nM) or IL-20 (max conc.=2000 nM, 2-fold diluted to 62.5 nM) over IL-20R2. FIGS. 12E-12H show IL-19 and IL-20 (fixed at 250 nM) mixed with different concentrations of IL-20R1, or IL-22R1, (max conc.=1000 nM, 2-fold diluted to 7.81 nM) and injected over IL-20R2. To estimate R1 chain affinity/complex stability, the contribution of the ligand was removed by using the 250 nM IL-19, or IL-20, sensorgram as the blank subtraction. All sensorgrams were fit to 1:1 binding models.
(§2) Surface Plasmon Resonance Experiments SPR experiments were performed on Biacore T-100, and T-200, (GE healthcare, Waukesha, Wis.) systems. Soluble IL-20R2 was amine coupled (100-130 RU) to CM5 research grade biacore chips in 10 mM sodium acetate, pH 5.0. IL-20R1-FC and IL-20R2-FC were coupled (60-120 RU) to CM5 chips using an anti-FC Ab coupling kit using the manufacturer's instructions (GE healthcare, Waukesha, Wis.). All binding experiments were performed in running buffer consisting of 10 mM Hepes, pH 7.4, 150 mM NaCl, 0.04% P20, and 0.1 mg/mL bovine serum albumin (Sigma, St. Louis, Mo.). No regeneration was performed between sample injections on IL-20R2 amine-coupled surfaces. […] Soluble proteins were injected for 75-90 seconds (30 uL/min) over the surfaces, and the dissociation phase was followed for 75-120 seconds depending on the stability of the complex being analyzed. […]
IL-19/IL-20R2 and IL-20/IL-20R2 interactions were determined by SPR methods with IL-20R2 attached to a biacore chip by amine coupling, or as an IL-20R2-FC fusion protein.

IL-20 [1] = biological target: T2, IL-20 (human, UniProt Q9NYY1 25-176); experiment: SPR (Biacore), IL-20 (2000-62.5 nM) over IL-20R2-fc captured by anti-FC Ab, 1:1 fit
T2 construct: The crystal model holds residues 24-176; also called Interleukin-20; IL-20b
T2 sequence: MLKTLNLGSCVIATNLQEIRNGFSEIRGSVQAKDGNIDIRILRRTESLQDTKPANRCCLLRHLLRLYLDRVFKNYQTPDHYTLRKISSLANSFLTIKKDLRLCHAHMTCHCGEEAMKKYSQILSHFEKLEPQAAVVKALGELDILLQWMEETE

IL-20 [2] = biological target: T2, IL-20; experiment: SPR, site KD as listed in Table 5
IL-20 [3] = biological target: T2, IL-20; experiment: SPR, IL-20 over IL-20R2 (FIG. 12D)
Procedure: as §1, with “FIGS. 12A-12H are graphs showing IL19/IL-20 receptor interactions and complex stability. SPR” for “SPR”
(§3) Surface Plasmon Resonance Experiments SPR experiments were performed on Biacore T-100, and T-200, (GE healthcare, Waukesha, Wis.) systems. […] Soluble proteins were injected for 75-90 seconds (30 uL/min) over the surfaces, and the dissociation phase was followed for 75-120 seconds depending on the stability of the complex being analyzed. […]

[4] = biological target: T3, IL-19 bound on IL-20R2-fc (IL-19/IL-20R2-fc binary complex) (human, UniProt Q9UHD0 25-177); experiment: SPR co-injection: IL-19 fixed at 250 nM with IL-20R1 (1000-7.81 nM) over IL-20R2-fc; 250 nM IL-19 sensorgram subtracted; 1:1 fit, apparent value
Procedure: as §1, with “FIGS. 12A-12H are graphs showing IL19/IL-20 receptor interactions and complex stability. SPR” for “SPR”
as §3

[5] = biological target: T4, IL-20 bound on IL-20R2-fc (IL-20/IL-20R2-fc binary complex) (human, UniProt Q9NYY1 25-176); experiment: SPR co-injection: IL-20 fixed at 250 nM with IL-20R1 (1000-7.81 nM) over IL-20R2-fc; 250 nM IL-20 sensorgram subtracted; 1:1 fit, apparent value
Procedure: as §1, with “FIGS. 12A-12H are graphs showing IL19/IL-20 receptor interactions and complex stability. SPR” for “SPR”
as §3

[6] = biological target: T3, IL-19 bound on IL-20R2-fc …; experiment: SPR co-injection: IL-19 fixed at 250 nM with IL-20R1 (1000-7.81 nM) over IL-20R2-fc; 250 nM IL-19 sensorgram subtracted; 1:1 fit, apparent KD (KDapp)
Procedure: (§4) To estimate R1 chain affinity/complex stability, the contribution of the ligand was removed by using the 250 nM IL-19, or IL-20, sensorgram as the blank subtraction. All sensorgrams were fit to 1:1 binding models.
(§5) To estimate the stability of IL-20 (IL-20/IL-20R1/IL-20R2 and IL-20/IL-22R1/IL-20R2) and IL-19 (IL-19/IL-20R1/IL-20R2) ternary complexes (FIG. 1), IL-19, or IL-20, was co-injected with soluble IL-20R1 over a biacore chip coupled with IL-20R2. […] The same results, although with different KDapp values, were obtained by evaluating ternary complex stability by injecting soluble IL-20R2 and IL19, or IL-20, over biacore chip surfaces of IL-20R1 or IL-22R1 (FIG. 13).
as §2, with “Wis.).” for “Wis.). All binding experiments were performed in running buffer consisting of 10 mM Hepes, pH 7.4, 150 mM NaCl, 0.04% P20, and 0.1 mg/mL bovine serum albumin (Sigma, St. Louis, Mo.). No regeneration was performed between sample injections on IL-20R2 amine-coupled surfaces.”

[7] = biological target: T4, IL-20 bound on IL-20R2-fc …; experiment: SPR co-injection: IL-20 fixed at 250 nM with IL-20R1 (1000-7.81 nM) over IL-20R2-fc; 250 nM IL-20 sensorgram subtracted; 1:1 fit, apparent KD (KDapp)
Procedure: as §4, §5
as §2, with “Wis.).” for “Wis.). All binding experiments were performed in running buffer consisting of 10 mM Hepes, pH 7.4, 150 mM NaCl, 0.04% P20, and 0.1 mg/mL bovine serum albumin (Sigma, St. Louis, Mo.). No regeneration was performed between sample injections on IL-20R2 amine-coupled surfaces.”

IL-22 = biological target: T5, IL-22 (Homo sapiens (Human), UniProt Q9GZX6 35-179, limits assumed); experiment: SPR, IL-22 as analyte over IL22R1ddq-FCkh (MONO) as ligand
T5 construct: also called IL-22 wt
T5 sequence: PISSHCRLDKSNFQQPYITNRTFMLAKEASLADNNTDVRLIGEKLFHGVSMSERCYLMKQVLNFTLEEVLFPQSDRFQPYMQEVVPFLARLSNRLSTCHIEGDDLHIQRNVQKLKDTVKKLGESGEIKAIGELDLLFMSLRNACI

[8] = biological target: T6, IL-20/IL-20R2 binary complex (human, UniProt Q9NYY1 25-176; Q6UXL0 30-230); experiment: SPR co-injection: IL-20 fixed at 250 nM with IL-22R1 (1000-7.81 nM) over amine coupled IL-20R2; 250 nM IL-20 sensorgram subtracted; 1:1 fit, apparent KD (KDapp)
T6 construct: also called 20 + 20R2; IL-20+soluble IL-20R2
T6 chain 1: T2 sequence
T6 chain 2: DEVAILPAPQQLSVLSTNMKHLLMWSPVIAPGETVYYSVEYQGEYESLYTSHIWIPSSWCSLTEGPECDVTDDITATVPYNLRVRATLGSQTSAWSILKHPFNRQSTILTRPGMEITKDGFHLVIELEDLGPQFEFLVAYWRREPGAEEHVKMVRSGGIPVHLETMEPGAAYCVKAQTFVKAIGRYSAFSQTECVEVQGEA
Procedure: as §1, with “FIGS. 12A-12H are graphs showing IL19/IL-20 receptor interactions and complex stability. SPR” for “SPR”
as §3

[9] = biological target: T6, IL-20/IL-20R2 binary complex; experiment: SPR co-injection: IL-20 fixed at 250 nM with IL-22R1 (1000-7.81 nM) over amine coupled IL-20R2; 250 nM IL-20 sensorgram subtracted; 1:1 fit, apparent value
Procedure: as §1, with “FIGS. 12A-12H are graphs showing IL19/IL-20 receptor interactions and complex stability. SPR” for “SPR”
as §3

B1: IL-20R2-FC (Fc fusion)
chain: DEVAILPAPQQLSVLSTNMKHLLMWSPVIAPGETVYYSVEYQGEYESLYTSHIWIPSSWCSLTEGPECDVTDDITATVPYNLRVRATLGSQTSAWSILKHPFNRQSTILTRPGMEITKDGFHLVIELEDLGPQFEFLVAYWRREPGAEEHVKMVRSGGIPVHLETMEPGAAYCVKAQTFVKAIGRYSAFSQTECVEVQGEAGSGGGGPSVFIFPPKIKDVLMISLSPIVTCVVVDVSEDDPDVQISWFVNNVEVHTAQTQTHREDYNSTLRVVSALPIQHQDWMSGKEFKCKVNNKDLPAPIERTISKPKGSVRAPQVYVLPPPEEEMTKKQVTLTCMVTDFMPEDIYVEWTNNGKTELNYKNTEPVLDSDGSYFMTSKLRVEKKNWVERNSYSCSVVHEGLHNHHTTKSFGGCGTPASGGLNDIFEAQKIEWHE
notes: also called IL-20-FC
- Kd (IL-19): 105 nM
- koff (IL-19): 0.0242 s⁻¹
- kon (IL-19): 230000 M⁻¹ s⁻¹
- Kd (IL-20 [1]): 686 nM
- koff (IL-20 [1]): 0.219 s⁻¹
- kon (IL-20 [1]): 319000 M⁻¹ s⁻¹
- Kd (IL-20 [2]): 687 nM
- Kd (IL-20 [3]): 697 nM

B2: soluble IL-20R1 (receptor)
chain: VPCVSGGLPKPANITFLSINMKNVLQWTPPEGLQGVKVTYTVQYFIYGQKKWLNKSECRNINRTYCDLSAETSDYEHQYYAKVKAIWGTKCSKWAESGRFYPFLETQIGPPEVALTTDEKSISVVLTAPEKWKRNPEDLPVSMQQIYSNLKYNVSVLNTKSNRTWSQCVTNHTLVLTWLEPNTLYCVHVESFVPGPPRRAQPSEKQCARTLKDQSS
- koff [4]: 0.139 s⁻¹
- kon [4]: 44500 M⁻¹ s⁻¹
- koff [5]: 0.0171 s⁻¹
- kon [5]: 53700 M⁻¹ s⁻¹
- Kd [6]: 3120 nM
- Kd [7]: 319 nM

B3: IL22R1ddq-FCkh (MONO) (Fc fusion)
chain: AHAPEDPSDLLQHVKFQSSNFENILTWDSGPEGTPDTVYSIEYKTYGERDWVAKKGCQRITRKSCDLTVETGDLQELYYARVTAVSAGGRSATKMTDRFSSLQHTTLKPPDVTCISKVRSIQMIVHPTPTPIRAGDGHRLTLEDIFHDLFYHLELQVNRTYQMHLGGKQREYEFFGLTPDTEFLGTIMICVPTWAKESAPYMCRVKTLPDRTWTYSGSGGGGPSVFIFPPKIKDVLMISLSPIVTCVVVDVSEDDPDVQISWFVNNVEVHTAQTQTHREDYNSTLRVVSALPIQHQDWMSGKEFKCKVNNKDLPAPIERTISKPKGSVRAPQVYVLPPPCEEMTKKQVTLYCMVTDFMPEDIYVEWTNNGKTELNYKNTEPVLDSDGSYFMYSKLRVEKKNWVERNSYSCSVVHEGLHNHHTTKSFSRTPGKGLEASGGLNDIFEAQKIEWHEGTGHHHHHH
- Kd (IL-22): 3.34 nM

B4: IL-22R1 (sIL-22R1DDQ) (receptor)
chain: HAPEDPSDLLQHVKFQSSNFENILTWDSGPEGTPDTVYSIEYKTYGERDWVAKKGCQRITRKSCDLTVETGDLQELYYARVTAVSAGGRSATKMTDRFSSLQHTTLKPPDVTCISKVRSIQMIVHPTPTPIRAGDGHRLTLEDIFHDLFYHLELQVNRTYQMHLGGKQREYEFFGLTPDTEFLGTIMICVPTWAKESAPYMCRVKTLPDRT
- Kd [8]: 1360 nM
- koff [9]: 0.0893 s⁻¹
- kon [9]: 65500 M⁻¹ s⁻¹

Source: US20150203556A1 (UAB RESEARCH FOUNDATION, published 2015)
